Laboratory results taken from the nanobody polyreactivity screen of Harvey et al. (2022).

Experiment: yeast display, Sf9 membrane polyspecificity reagent, FACS + sequencing; frameworks hold sequencing errors
Procedure, shortened: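 Sorting gates, low and high (top ~1%), were placed on anti-HA fluorescence to track expression and on streptavidin fluorescence to track reagent binding. A clone's polyreactivity label is taken from the gate it came out of. The reagent was 10% biotinylated, detergent-solubilized Sf9 membrane, applied for 1 hour at 4 °C to galactose-induced yeast display cells.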

Sequence | polyreactivity (PSR sort gate)
QVQLVESGGGLVQAGGSLRLSCAASGRIFARNAMGWYIQAPWKERELVAAISWTGDSTYYADSVKGRFTISRDNAKNTVYLQMNSLKPEDTAVYYCNALVYHTKGDYGYWGQGTQVTVSS | low polyreactivity
QVQLVESGGGLVQAGGSLRLSCAASGRIFARNAMGWYRQAPGKERELVAVITSRGGSTYYADSVKGRFTISRDNAKNTVYLQMNSLKPEDTAVYYCAARYSGEYGYWGQGTQVTVSS | high polyreactivity
QVQLVESGGGLVQAGGSLRLSCAASGRIFARNAMGWYRQAPGKESELVAAINWSGGSTYYADSVKGRFTISRDNAKNTVYLQMNSLKPEDTAVYYCATRSSLFRQYLPWYEYWGQGTQVTVSS | low polyreactivity
QVQLVESGGGLVQAGGSLRLSCAASGRIFASNAMGWYRPAPGKERELVAAIDQGGGSTYYADSVKGRFTISRDNAKNTVYLQMNSLKPEDTAVYYCAADYITAYPRLYNYWGQGTQVTVSS | low polyreactivity
QVQLVESGGGLVQAGGSLRLSCAASGRIFASYAMGWYRQAPGKERELVAAIDRTDSTYYADSVKGRFTISRDNAKNTVYLQMNSLKPEDTAVYYCAADEYYTFSSFELRRMDYWGQGTQVTVSS | low polyreactivity
QVQLVESGGGLVQAGGSLRLSCAASGRIFASYAMGWYRQAPGKERELVAAISKSGGRTYYADSVKGRFTISRDNAKNTVYLQMNSLKPEDTAVYYCAADGYRYYSWTRFSYYSGYDYWGQGTQVTVSS | high polyreactivity
QVQLVESGGGLVQAGGSLRLSCAASGRIFATNAMGWYRQAPGKERELVAAISDGGGSTYYADSVKGRFTISRDNAKNTVYLQMNSLKPEDTAVYYCAARVLDWRGDIHDSEYWGQGTQVTVSS | low polyreactivity
QVQLVESGGGLVQAGGSLRLSCAASGRIFATNAMGWYRQAPGKERELVATITRSAGRTYYADSVKGRFTISRDNEKNTVYLQMNILKPDVTAVYYCAADGYSTAVDDTVRYIVEYEFWGQGTQVTVSS | low polyreactivity
QVQLVESGGGLVQAGGSLRLSCAASGRIFAVNAMGWYRQAHGKERELVASISRRGGTTNYADSVKGRFTISRDNAKNTVYLKMNSLIPEDTAVYYCATRGSAWGRSYNYWGQGTQVTLSS | high polyreactivity
QVQLVESGGGLVQAGGSLRLSCAASGRIFAVYVMGWYRQAPGKERELVAAISQSGGRTYYADSVKGRFTISRDNAKNTVYLQMNSLKPEDTAVYYCNTVTSRATNFSGFGYWGQGTQVTVSS | high polyreactivity
QVQLVESGGGLVQAGGSLRLSCAASGRIFAWYAMGWYRQAPGKERELVAAISDSGGSTYYADSVKGRFTISRDNAKNTVYLQMNSLKPEDTAVYYCAADQVVYSAYWSDHYDYWGQGTQVTVSS | low polyreactivity
QVQLVESGGGLVQAGGSLRLSCAASGRIFAYYAMGRYRQAPGKERELVAAITRSGARTYYADSVKGRFTISRDNAKNTVYLQMNSLKPEDTAVYYCAAEGVRIGTRYDYWGQGTQVTVSS | high polyreactivity
QVQLVESGGGLVQAGGSLRLSCAASGRIFAYYAMGWYRQAPGKERELVAAINSNGGSTYYADSVKGRFTISRDNAKNTVYLQLNSLKPEDTAVYYCAAGARYKMGYWGQGTQVTVSS | high polyreactivity
QVQLVESGGGLVQAGGSLRLSCAASGRIFAYYAMGWYRQAPGKERELVAAISSSGVSTSYADSVKGRFTISRDNAKNTVYLQMNSLKPEDTAVYYCAASPGGRPYFNHDSWGQGTQVTVSS | low polyreactivity
QVQLVESGGGLVQAGGSLRLSCAASGRIFAYYAMGWYRQAPGKERELVAAITRSGARTYYADSVKGRFTISRDNAKNTVYLQMNSLKPEDTAVYYCAAEGVRIGTRYDYWGQGTQVTVSS | high polyreactivity
QVQLVESGGGLVQAGGSLRLSCAASGRIFAYYAMGWYRQAPGKERELVAGISKSGGRTYYADSVKGRFTISRDNAKNTVYLQMNSLKPEDTAVYYCAVESYRRYYYWGQGTQVTVSS | high polyreactivity
QVQLVESGGGLVQAGGSLRLSCAASGRIFCTNAMGWYRHEPGKERELVADITSGGSTNYADSVKGRFTISRDNAKNTVYLQMNSLKPEDTAVYSCAADVIGDLRWYRDEYWGQGTQVTVSS | low polyreactivity
QVQLVESGGGLVQAGGSLRLSCAASGRIFDAKVMGWYRQAPGKERELVAAISASAGSTSYADSVKGRFTISRDNAKNTVYLQMNSLKPEDTSVYYCAADPYQLWHYYYFGMDYWGQGTQVTVSS | low polyreactivity
QVQLVESGGGLVQAGGSLRLSCAASGRIFDDNAMGWYRQAPGKERELVADINNATSTNYADSVKGRFTISRDNAKNTVYLQMNSLKPEDTAVYYCAADDYIYYRILGDSFVYKAYGYWGQGTQVTVSS | low polyreactivity
QVQLVESGGGLVQAGGSLRLSCAASGRIFDDYAMGWYRQAPGKERELVAAIRSGGNTNYADSVKGRFTISRDNAKNTVYLQMNSLKPEDTADYYCAADTWFRAGYFVVYYDYWGQGTQVTVSS | low polyreactivity

Sequence | polyreactivity (PSR sort gate)
QVQLVESGGGLVQAGGSLRLSCAASGRIFDGNARGWYIQAPGKERELVAAISRNGGTYYADSVKGRFTISRDNAKNTVYLQMNSLKPEDTAVYYCAADPSSVGYHVEYDYWGQGTQVTVSS | low polyreactivity
QVQLVESGGGLVQAGGSLRLSCAASGRIFDGYAIGWYRQAPGKERDLVAAISWGGGSTYYADSVKGRFTISRDNAKNTVYLQMNSLKPDDTAVYYCAGDGIWAREMDYWGQGTQVTVSS | low polyreactivity
QVQLVESGGGLVQAGGSLRLSCAASGRIFDGYAIGWYRQAPGKERELVAAISSRGGRTYYADSVKGRFTISRDNAKNTVYLQMNSLKPEDTAVYYCAAVDPYGEGDYWGQGTQVTVSS | low polyreactivity
QVQLVESGGGLVQAGGSLRLSCAASGRIFDHNAMGWYRQAPGKERELVAAINYSDDSTYYADSVKGRFTISRDNAKNTVYLQMNSLKPEDTAVYYCNADVGSEYSDKYDYWGQGTQVTVSS | low polyreactivity
QVQLVESGGGLVQAGGSLRLSCAASGRIFDINAMGWYRQAPGKERELVAAINYNGSSTYYADSVKGRFTISRDNAKNTVYLEMNSLKPEDTAVYYCATEQVDVYTYDYWGQGTQVTVSS | high polyreactivity
QVQLVESGGGLVQAGGSLRLSCAASGRIFDKYAMGWYRQAPGKERELVAAIDWSGGSTYYADSVKGRFTISRDNAKNTVYLQMNSLKPEDTAVYYCAAYWYYEDGQSEARLYGYDYWGQGTQVTVSS | low polyreactivity
QVQLVESGGGLVQAGGSLRLSCAASGRIFDNYVMGWYRQAPGKERELVAAISSGGGTYYADSVKGRFTISRDNAKNTVYLQMNSLKPEDTAVYYCAKRRVYDRSFGRYDYWGQGTQVTVSS | low polyreactivity
QVQLVESGGGLVQAGGSLRLSCAASGRIFDPYAMGWYRQAPGKERELVASISWSGGRTYYADSVKGRFTISRDNAKNTVYLQMNSLKPEDTAVYYCAARQWYRYKVRFDYWGQGTQVTVSS | high polyreactivity
QVQLVESGGGLVQAGGSLRLSCAASGRIFDQYAMGWYRQAPGKERELVAVISSSGTTNYADSVKGRFTISRDNAKNTVYLQMNSLKPEDTAVYYCAARRQSWFVAAHMDYWGQGTQVTVSS | low polyreactivity
QVQLVESGGGLVQAGGSLRLSCAASGRIFDVYAMGWYRQAPGKERELVATITGSGGGTYYADSVKGRFTISRDNAKNPVYLQMNSLKPEDTADYYCAADYYPTYAYYVSNVGYDYWGQGTQVTVSS | low polyreactivity
QVQLVESGGGLVQAGGSLRLSCAASGRIFDWNMGWYRQAPGKDRELVAGITFSVDSTYYADSVKGRFTISRDNAKNTVYLQMNSLKPEDTAYWGQGTQVTVST | low polyreactivity
QVQLVESGGGLVQAGGSLRLSCAASGRIFDYNAMGWYRQAPGKERELVAAISSRGGRTYYADSVKGRFTISRDNAKNTVYLQMNSLKPEDTAVYYCNTGWATDADDYWGQGTQVTVSS | high polyreactivity
QVQLVESGGGLVQAGGSLRLSCAASGRIFDYNVMGWYRQPPGKESELVAAISWDGDSTYYADSVKGRFTISRDNAKNSVYLQMKSLKPEDTAVYYCNRVEGGTSWADEMNYWGQGTQVTVSS | low polyreactivity
QVQLVESGGGLVQAGGSLRLSCAASGRIFDYYDMGWYRQAPGKERELVAAISNGGSTYYADSVKGRFTISRDNAKNTVYLQMNCLKPEDTAVYYCNNRWYYQYGQSHVRWYDYWGQGTQVTVSS | high polyreactivity
QVQLVESGGGLVQAGGSLRLSCAASGRIFEEYAMGWYRQAPGKERELVAAITWGGSTYYADSVKGRFTISRDNAKNTVYLQMNSLKPEDTAVYYCAALKSYYWYTPRYRGDYWGQGTQVTVSS | low polyreactivity
QVQLVESGGGLVQAGGSLRLSCAASGRIFENNAMGWYRQAPGKERELVAAITSGGSTYYADSVKGRFTISRDNAKNTVYLQMNSLKPEDTAVYYCNVTFRVDPWTRTGYDYWGQGTQVTVSS | high polyreactivity
QVQLVESGGGLVQAGGSLRLSCAASGRIFEPYAMGWYRKAPGKERELLAAITSGGSTDYADSVKGRFTISRDNAKNTVYLQMNSLKPEDTAVYYCATRWGYAVSFDFYFLLSGVDYWGQGTQVTVSS | low polyreactivity
QVQLVESGGGLVQAGGSLRLSCAASGRIFESYAMGWYIQAPGKERELVAAISSGGGTTYYADSVKGLFTISRDNAKYSVYLQMNSLKPEDTAVYYCAADALSDEYDYWGQGTHVTVSS | low polyreactivity
QVQLVESGGGLVQAGGSLRLSCAASGRIFETNGMGWYRQAPGKERELVAAITRSGGVRTYADSVKGRFTISRDNAKNTVYLQMNSLKPEDTAVYYCNKRSILGRGTPSPYKRMYHWGQGTQVTVSS | low polyreactivity
QVQLVESGGGLVQAGGSLRLSCAASGRIFEVYAMGWYRQAPGKERELVAAITSSGGSRTYYADSVKGRFTISRDNAKNTVYLQMNSLKPEDTAVYYCNDYGGRWIGGRRAYRYNYWGQGTQVNVSS | high polyreactivity
